System: oral culture (oral swab from a healthy adult, oral flora)
Test: LF/GMP assay, viable plate count (pour plate) of broth culture
Type: cell-based, Streptococcus salivaris
Parameters: key to MIBC: NCF: No Effective Concentration Found
Details: 35° C.; for Colony Counts: viable plate count
Description: Bacterial strains used in this study were Pseudomonas aeruginosa ATCC #27853, Streptococcus mutans ATCC #33535, Streptococcus pyogenes ATCC #19615, and Actinobacillus haemophilus ATCC #43717 and an oral swab from a healthy adult. Bacteria were grown on blood/BHT media (Brain Heart Infusion Agar with protease peptone, sodium chloride, glucose, di-sodium phosphate, and agar, Oxoid, Hampshire England, Sheep's Blood) in the presence of 5% CO2 at 35° C. […] The 0.5 McFarland value is approximately equivalent to 1.0×10^8 organisms. One ml of the appropriate bacterial dilution was taken using a sterile pipette and introduced into 8 ml of sterilized BHI broth. […] By pipette, 9 ml of broth was placed into medium test tubes as means of a control and 8 ml test tubes were prepared for the concentration tests). […] This solution was filtered through a 0.45 μm filter. […] Example for calculating 2,500 ppm dilution (1,000 ppm=0.1%): [formula] [formula] [formula] To study the kinetics of LF/GMP binding, each strain of bacteria was taken separately with a sterile pipette and placed into an 8 ml BHI broth test tube, vortexed, and incubated in the presence of 1 ml of LF or GMP for 18-24 hours at 35° C. with 5% CO2. In the combination procedure, 0.5 ml of both LF and […] were taken as 1 ml inoculations. This technique was used to determine the density of living (viable) cells in inoculated broth cultures. It involves plating a bacterial sample and counting the resulting colonies after incubation. A serial dilution of the original broth was taken prior to plating. The serial dilution is necessary to reduce the density of organisms in order to create countable plates. Only plates containing between 25 and 250 colonies are considered countable. Cell densities are traditionally recorded as CFU (colony forming unit)/ml. […] Formula: [formula] The assays required the use of a pour plate technique. The pour plate technique adds a step to the conventional serial dilution. The 1 ml of dilution is added to a warm emulsion of dilute nutrient (BHI) agar to produce an agar overlay in the petri plates. After incubation, the bacterial growth covers the entire plate but individual cellular movement has been restricted by the soft agar overlay. Each colony formed is assumed to have originated from a single CFU. The plates were gently mixed, inverted, and incubated for 18-24 hour at 35° C. There is a mixture of microorganisms obtained in “normal oral flora.” Testing a swab taken from a healthy mouth cavity aided in the identification of the most common mouth flora. Experiments were conducted with the mouth culture to determine the antimicrobial effects of LF and GMP. Oral cultures were grown on BHI agar with added sheep's blood for 24 hours at 35° C. 5% CO2. […] These plates were incubated for another 24 hours. Here, isolated colonies were taken and were streaked on a BHI/Blood plate for growth of a pure culture. Streaking a plate produces isolated growth of microbial species in a mixed culture sample. Once isolated, pure cultures can be tested for species identification. The isolated colonies were Gram-stained to distinguish between Gram-positive and Gram-negative cells. The Gram stain is a differential stain in which a decolorization step occurs between the application of two basic stains. The next step was a catalase test to identify the organisms that produce the enzyme catalase. It was used to differentiate members of the catalase-positive Micrococcaceae and Staphylococci from the catalase-negative Streptococcaceae. Hydrogen peroxide was added to the bacteria and observed for a reaction (evidence of bubbles being formed). In the oral culture, three isolated colonies were tested for identification from a swabbed mouth cavity. […] This negative-catalase reaction was a confirmation of a streptococcus species. The API 20 Strep test was done on all three pure cultures to identify each species. The numbers were the results of the API 20 test. […]

B1: LF: Bovine lactoferrin, iron-binding glycoprotein purified from milk, provided by DMV International (protein, UniProt P24627 20-708, looked up)
Lactotransferrin: APRKNVRWCTISQPEWFKCRRWQWRMKKLGAPSITCVRRAFALECIRAIAEKKADAVTLDGGMVFEAGRDPYKLRPVAAEIYGTKESPQTHYYAVAVVKKGSNFQLDQLQGRKSCHTGLGRSAGWIIPMGILRPYLSWTESLEPLQGAVAKFFSASCVPCIDRQAYPNLCQLCKGEGENQCACSSREPYFGYSGAFKCLQDGAGDVAFVKETTVFENLPEKADRDQYELLCLNNSRAPVDAFKECHLAQVPSHAVVARSVDGKEDLIWKLLSKAQEKFGKNKSRSFQLFGSPPGQRDLLFKDSALGFLRIPSKVDSALYLGSRYLTTLKNLRETAEEVKARYTRVVWCAVGPEEQKKCQQWSQQSGQNVTCATASTTDDCIVLVLKGEADALNLDGGYIYTAGKCGLVPVLAENRKSSKHSSLDCVLRPTEGYLAVAVVKKANEGLTWNSLKDKKSCHTAVDRTAGWNIPMGLIVNQTGSCAFDEFFSQSCAPGADPKSRLCALCAGDDQGLDKCVPNSKEKYYGYTGAFRCLAEDVGDVAFVKNDTVWENTNGESTADWAKNLNREDFRLLCLDGTRKPVTEAQSCHLAVAPNHAVVSRSDRAAHVKQVLLHQQALFGKNGKNCPDKFCLFKSETKNLLFNDNTECLAKLGGRPTYEEYLGTEYVTAIANLKKCSTSPLLEACAFLTR
Q: B1 was tested. Which “Colony Counts” value (50 ppm, 24 h) did it give?
A: 4.8 × 10^8

Q: What about the “Colony Counts” value (100 ppm, 24 h) of the same molecule?
A: 4.2 × 10^8

Q: What about the “Colony Counts” value (250 ppm, 24 h) of the same molecule?
A: 4.3 × 10^8

Q: And the “Colony Counts” value (500 ppm, 24 h)?
A: 4.0 × 10^8

Q: What about the “Colony Counts” value (1,000 ppm, 24 h) of the same molecule?
A: 3.9 × 10^8

Q: What about the “Colony Counts” value (3,000 ppm, 24 h) of the same molecule?
A: 3.4 × 10^8

Q: And the “Total Log Reduction” value (Lactoferrin/GMP 250/0 ppm (LF alone))?
A: 0 log

Q: And the “Total Log Reduction” value (Lactoferrin/GMP 3,000/0 ppm (LF alone))?
A: 0 log

Q: What about the “# Log Reductions” value (at the MIBC, vs control) of the same molecule?
A: 0 log

Q: What about the “effect on growth (in words)” value (single agent, any tested concentration) of the same molecule?
A: not effected

Q: And the MIBC (single agent, 24 h, 5% CO2)?
A: NCF
